Data taken from the supplement of paper PMC9112550, “Optimization of the antimicrobial peptide Bac7 by deep mutational scanning” (BMC Biology, 2022).

Test system: Escherichia coli TOP10
Experiment: shrunken log2 fold change of peptide-encoding DNA abundance (4.5 h post-induction vs induction); higher = less antimicrobial activity (less host growth inhibition)
Details: time post-induction: 4.5 h; library: site-saturation at positions 5, 18, 19, 20
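Also: peptides expressed intracellularly from a pBAD plasmid library in pooled LB shake-flask culture, induced with 0.3% L-arabinose, DNA abundance read by NGS, three biological replicates, DESeq2 with apeglm shrinkage.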

| Sequence | shrunken log2 fold change |
| --- | --- |
| RRIRCRPPRLPRPRPRPILDPRP | -0.122 |
| RRIRQRPPRLPRPRPRPCNDPRP | -0.374 |
| RRIRNRPPRLPRPRPRPCLEPRP | 0.000258 |
| RRIRCRPPRLPRPRPRPTRPPRP | 0.938 |
| RRIRARPPRLPRPRPRPACQPRP | 0.486 |
| RRIRRRPPRLPRPRPRPISDPRP | 0.136 |
| RRIRIRPPRLPRPRPRPNQYPRP | -0.681 |
| RRIRLRPPRLPRPRPRPWMFPRP | -0.108 |
| RRIRWRPPRLPRPRPRPPEAPRP | 0.428 |
| RRIRIRPPRLPRPRPRPRIPPRP | -0.324 |
| RRIRGRPPRLPRPRPRPAKYPRP | 0.155 |
| RRIRQRPPRLPRPRPRPGNSPRP | -0.391 |
| RRIRVRPPRLPRPRPRPCENPRP | -0.0135 |
| RRIRCRPPRLPRPRPRPFSMPRP | -0.107 |
| RRIRMRPPRLPRPRPRPKNKPRP | 0.408 |
| RRIRMRPPRLPRPRPRPCSAPRP | 1.24 |
| RRIRNRPPRLPRPRPRPLLDPRP | 0.0489 |
| RRIRWRPPRLPRPRPRPSRHPRP | 0.0203 |
| RRIRQRPPRLPRPRPRPEFKPRP | -0.0763 |
| RRIRTRPPRLPRPRPRPVMGPRP | -0.0279 |
| RRIRWRPPRLPRPRPRPAGPPRP | 0.235 |
| RRIRSRPPRLPRPRPRPSDMPRP | -0.373 |
| RRIRSRPPRLPRPRPRPYEHPRP | -0.493 |
| RRIRWRPPRLPRPRPRPYMGPRP | -0.106 |
| RRIRCRPPRLPRPRPRPPEIPRP | 0.0794 |

| Sequence | shrunken log2 fold change |
| --- | --- |
| RRIRSRPPRLPRPRPRPAEKPRP | 0.0409 |
| RRIRSRPPRLPRPRPRPILKPRP | -0.469 |
| RRIRVRPPRLPRPRPRPWLSPRP | -0.0434 |
| RRIRCRPPRLPRPRPRPHAEPRP | 0.315 |
| RRIRIRPPRLPRPRPRPYMCPRP | -0.318 |
| RRIRSRPPRLPRPRPRPSTYPRP | -0.405 |
| RRIRCRPPRLPRPRPRPLAIPRP | -0.0224 |
| RRIRNRPPRLPRPRPRPMSFPRP | -0.0524 |
| RRIRQRPPRLPRPRPRPWGEPRP | -0.0675 |
| RRIRLRPPRLPRPRPRPRFKPRP | 0.0114 |
| RRIRFRPPRLPRPRPRPFTSPRP | -0.316 |
| RRIRNRPPRLPRPRPRPVQSPRP | 0.00489 |
| RRIRFRPPRLPRPRPRPPENPRP | 0.102 |
| RRIRQRPPRLPRPRPRPIYWPRP | 0.0909 |
| RRIRQRPPRLPRPRPRPGATPRP | 0.273 |
| RRIRVRPPRLPRPRPRPYHKPRP | -0.0829 |
| RRIRGRPPRLPRPRPRPMWGPRP | -0.0435 |
| RRIRQRPPRLPRPRPRPVPWPRP | -0.01 |
| RRIRLRPPRLPRPRPRPVIQPRP | -0.0903 |
| RRIRPRPPRLPRPRPRPFFGPRP | 0.0908 |
| RRIRFRPPRLPRPRPRPGWTPRP | -0.115 |
| RRIRKRPPRLPRPRPRPRKRPRP | 1.04 |
| RRIRSRPPRLPRPRPRPTAPPRP | 0.317 |
| RRIRMRPPRLPRPRPRPQPEPRP | 0.582 |
| RRIRERPPRLPRPRPRPRVTPRP | 0.107 |

| Sequence | shrunken log2 fold change |
| --- | --- |
| RRIRLRPPRLPRPRPRPQYGPRP | 0.0165 |
| RRIRHRPPRLPRPRPRPCPLPRP | -0.667 |
| RRIRMRPPRLPRPRPRPHDTPRP | 0.048 |
| RRIRWRPPRLPRPRPRPNDNPRP | -0.425 |
| RRIRYRPPRLPRPRPRPWREPRP | 0.0494 |
| RRIRCRPPRLPRPRPRPVHAPRP | 0.065 |
| RRIRCRPPRLPRPRPRPLFVPRP | -0.482 |
| RRIRDRPPRLPRPRPRPNGVPRP | -0.0244 |
| RRIRNRPPRLPRPRPRPGMLPRP | -0.184 |
| RRIRWRPPRLPRPRPRPNNFPRP | -0.0323 |
| RRIRDRPPRLPRPRPRPRPHPRP | 0.465 |
| RRIRARPPRLPRPRPRPGDDPRP | 0.846 |
| RRIRYRPPRLPRPRPRPMWPPRP | 0.158 |
| RRIRWRPPRLPRPRPRPTEAPRP | 0.214 |
| RRIRWRPPRLPRPRPRPPAAPRP | 0.913 |
| RRIRQRPPRLPRPRPRPPSAPRP | 0.5 |
| RRIRERPPRLPRPRPRPPATPRP | 0.35 |
| RRIRQRPPRLPRPRPRPESWPRP | 0.461 |
| RRIRHRPPRLPRPRPRPDQFPRP | -0.441 |
| RRIRCRPPRLPRPRPRPPCRPRP | 0.609 |
| RRIRERPPRLPRPRPRPLHYPRP | -0.249 |
| RRIRMRPPRLPRPRPRPSCQPRP | 0.166 |
| RRIRIRPPRLPRPRPRPRVLPRP | -0.24 |
| RRIRHRPPRLPRPRPRPLWHPRP | -0.138 |
| RRIRERPPRLPRPRPRPYCRPRP | -0.394 |

| Sequence | shrunken log2 fold change |
| --- | --- |
| RRIRIRPPRLPRPRPRPIYKPRP | -0.517 |
| RRIRSRPPRLPRPRPRPLNRPRP | -0.246 |
| RRIRYRPPRLPRPRPRPTGEPRP | -0.0166 |
| RRIRWRPPRLPRPRPRPSDPPRP | 0.00652 |
| RRIRVRPPRLPRPRPRPITQPRP | -0.0754 |
| RRIRLRPPRLPRPRPRPMILPRP | -0.677 |
| RRIRQRPPRLPRPRPRPTRCPRP | 0.747 |
| RRIRRRPPRLPRPRPRPKQQPRP | 0.0775 |
| RRIRDRPPRLPRPRPRPYQSPRP | -1.12 |
| RRIRVRPPRLPRPRPRPTVYPRP | -0.0885 |
| RRIRGRPPRLPRPRPRPELTPRP | 2.02 |
| RRIRQRPPRLPRPRPRPCVNPRP | 0.0293 |
| RRIRRRPPRLPRPRPRPHTEPRP | -0.0233 |
| RRIRPRPPRLPRPRPRPGAPPRP | 0.536 |
| RRIRVRPPRLPRPRPRPRVEPRP | 0.558 |
| RRIRVRPPRLPRPRPRPSFSPRP | -0.498 |
| RRIRQRPPRLPRPRPRPWCYPRP | -0.466 |
| RRIRDRPPRLPRPRPRPYWHPRP | -0.921 |
| RRIRYRPPRLPRPRPRPRCRPRP | -0.26 |
| RRIRSRPPRLPRPRPRPYLLPRP | -0.613 |
| RRIRYRPPRLPRPRPRPGEFPRP | -0.35 |
| RRIRERPPRLPRPRPRPRNDPRP | -0.478 |
| RRIRCRPPRLPRPRPRPYQEPRP | -0.276 |
| RRIRQRPPRLPRPRPRPHLQPRP | -0.0325 |
| RRIRARPPRLPRPRPRPKVSPRP | 0.669 |

| Sequence | shrunken log2 fold change |
| --- | --- |
| RRIRDRPPRLPRPRPRPDDEPRP | 0.425 |
| RRIRGRPPRLPRPRPRPSVYPRP | 0.286 |
| RRIRMRPPRLPRPRPRPRGDPRP | 1.73 |
| RRIRSRPPRLPRPRPRPEKLPRP | -0.264 |
| RRIRTRPPRLPRPRPRPCKDPRP | 0.027 |
| RRIRPRPPRLPRPRPRPHRKPRP | -0.0741 |
| RRIRDRPPRLPRPRPRPLINPRP | 0.125 |
| RRIRGRPPRLPRPRPRPGVDPRP | 0.951 |
| RRIRLRPPRLPRPRPRPAWQPRP | 0.202 |
| RRIRQRPPRLPRPRPRPRQQPRP | -0.0145 |
| RRIRPRPPRLPRPRPRPISPPRP | -0.115 |
| RRIRARPPRLPRPRPRPQDEPRP | 0.195 |
| RRIRMRPPRLPRPRPRPRRWPRP | 0.881 |
| RRIRTRPPRLPRPRPRPPDHPRP | 0.112 |
| RRIRIRPPRLPRPRPRPRHLPRP | -0.458 |
| RRIRQRPPRLPRPRPRPFWNPRP | -0.00884 |
| RRIRNRPPRLPRPRPRPRQGPRP | -0.0662 |
| RRIRMRPPRLPRPRPRPIGGPRP | 0.0689 |
| RRIRERPPRLPRPRPRPLRIPRP | -0.277 |
| RRIRERPPRLPRPRPRPAHKPRP | -0.154 |
| RRIRWRPPRLPRPRPRPMTCPRP | -0.34 |
| RRIRNRPPRLPRPRPRPQEDPRP | 0.00256 |
| RRIRIRPPRLPRPRPRPLGIPRP | 0.132 |
| RRIRSRPPRLPRPRPRPLCIPRP | -0.334 |
| RRIRIRPPRLPRPRPRPIEPPRP | 0.0377 |

| Sequence | shrunken log2 fold change |
| --- | --- |
| RRIRSRPPRLPRPRPRPKFGPRP | -0.15 |
| RRIRGRPPRLPRPRPRPYGWPRP | -0.0363 |
| RRIRYRPPRLPRPRPRPQTQPRP | -0.275 |
| RRIRKRPPRLPRPRPRPLFAPRP | 0.594 |
| RRIRCRPPRLPRPRPRPNNHPRP | -0.731 |
| RRIRKRPPRLPRPRPRPEHYPRP | 0.0532 |
| RRIRTRPPRLPRPRPRPYLMPRP | -0.601 |
| RRIRFRPPRLPRPRPRPDIWPRP | -0.273 |
| RRIRYRPPRLPRPRPRPPRHPRP | 0.00412 |
| RRIRIRPPRLPRPRPRPCSQPRP | -0.226 |
| RRIRERPPRLPRPRPRPSMLPRP | -0.938 |
| RRIRTRPPRLPRPRPRPHSMPRP | -0.665 |
| RRIRHRPPRLPRPRPRPLGWPRP | 0.708 |
| RRIRLRPPRLPRPRPRPESHPRP | -0.118 |
| RRIRDRPPRLPRPRPRPCDDPRP | 0.0345 |
| RRIRSRPPRLPRPRPRPTDIPRP | -0.489 |
| RRIRCRPPRLPRPRPRPSHMPRP | -0.838 |
| RRIRIRPPRLPRPRPRPSSKPRP | -0.599 |
| RRIRKRPPRLPRPRPRPCYFPRP | -0.00436 |
| RRIRHRPPRLPRPRPRPFPYPRP | -0.0859 |
| RRIRGRPPRLPRPRPRPWNNPRP | 0.139 |
| RRIRGRPPRLPRPRPRPDCPPRP | 0.22 |
| RRIRARPPRLPRPRPRPKDLPRP | -0.0598 |
| RRIRHRPPRLPRPRPRPDFKPRP | -0.127 |
| RRIRIRPPRLPRPRPRPPSDPRP | -0.101 |
